pKi: −log10 of the molar value.

Experiment [1] deals with human cathepsin L (human). Put plainly: enzyme inhibition kinetics (fluorogenic substrate, Morrison tight-binding fit); inhibitor serially diluted (20 to 0.1 nM) against each cysteine protease; 50 mM citrate phosphate buffer pH 5.5, 2 mM DTT, 0.01% Brij L23; 37 °C; substrate at its Km; Ki worked out from the apparent Ki.
Experiment [2] addresses recombinant F. hepatica cathepsin L2 (Fasciola hepatica). The description is as above.
The target in experiment [3] is human cathepsin K (human) (UniProt P43235). The description is as above.
Experiment [4] has as its target recombinant F. hepatica cathepsin L1 (Fasciola hepatica). The experiment is described as above.
Experiment [5] concerns the target human cathepsin L (human).
In experiment [6] the target is recombinant F. hepatica cathepsin L2 (Fasciola hepatica).
In experiment [7] the target is human cathepsin K (human) (UniProt P43235).
The target in experiment [8] is recombinant F. hepatica cathepsin L1 (Fasciola hepatica).
Experiment [9] has as its target bovine trypsin (bovine). Kind of experiment: enzyme inhibition kinetics (fluorogenic substrate, Morrison tight-binding fit); inhibitor serially diluted against trypsin (42 nM); 100 mM sodium phosphate buffer pH 7.6, 1 mM HCl, 20 mM Ca, 0.01% Brij L23; substrate Z-Leu-Arg-NHMec.
Experiment [10] addresses bovine trypsin (bovine).

Sequence of human cathepsin K (human) (P43235 115-329): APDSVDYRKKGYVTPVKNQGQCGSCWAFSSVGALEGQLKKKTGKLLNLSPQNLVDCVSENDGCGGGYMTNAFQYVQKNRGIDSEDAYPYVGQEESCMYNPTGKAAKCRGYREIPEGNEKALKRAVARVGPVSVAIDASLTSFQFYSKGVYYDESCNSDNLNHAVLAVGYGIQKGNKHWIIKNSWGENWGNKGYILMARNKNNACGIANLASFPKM

As for “recombinant Fasciola hepatica Kunitz-type protease inhibitor FhKT1 (natural protein)”, the pKi in experiment [1] was 8.80; in experiment [2], 8.00; in [3], 8.30; in experiment [4], 9.40. Besides, the reduction of protease activity (fluorogenic substrate) by 300 nM rFhKT1 in [5] worked out at 96.8%; in experiment [6], 90.3%; in experiment [7] it was 99.5%; in experiment [8], 98.9%.

“recombinant FhKT1Leu15/Arg15 variant (natural protein)”: the pKi is 8.82 in experiment [9]; 8.52 in [1]; 7.57 in experiment [2]; 8.00 in experiment [3]; 9.15 in experiment [4]. This substance also gave a reduction of trypsin activity (fluorogenic substrate) by 300 nM rFhKT1Leu15/Arg15 in experiment [10] of 88.9%.

The values above are taken from PMC5016662.
